Measured values as given in patent US20250161537A1, “IN-SITU INJECTABLE HYDROGEL ROD USING CROSSLINKED HYDROGEL, METHOD FOR MANUFACTURING SAME, AND BIOMEDICAL USE THEREOF” (AJOU UNIVERSITY INDUSTRY-ACADEMIC COOPERATION FOUNDATION, priority 2022, published 2025).

What was measured:
[1] = Intraocular pharmacokinetic evaluation after intravitreal injection (ELISA of vitreous, retina, aqueous humor); format: in vivo, New Zealand White (NZW) rabbit
Method: Bevacizumab drug control, hydrogel (in situ forming hydrogel) in Comparative Example, and hydrogel rod in Example were injected. The rabbits were sacrificed on days 1, 4, 8, 14, 30, 60, 90, and 120. In order to maintain its drug efficacy, the concentration of drug must be maintained from vitreous humor to retina, while the drug may be eliminated to the anterior chamber site. For evaluation, pharmacokinetic analysis of vitreous, retina, and aqueous humor tissues was conducted through ELISA after animal sacrifice and ocular separation by date.
After animal sacrifice and ocular separation by date, pharmacokinetic analysis of vitreous, retina, and aqueous tissues was performed via ELISA. […] The hydrogel rod of Example is a pre-crosslinking matrix, and, after the initial burst release is inhibited by 7 times compared to the control and 3 times compared to the hydrogel of Comparative Example, the drug was continuously released within a certain range and the drug concentration of about 32 µg/mL was maintained on 120 day, satisfying a level above […] which is the drug efficacy threshold of bevacizumab.

[2] = test system: human umbilical vein endothelial cells (HUVECs); assay: WST-1 assay, growth inhibition of HUVEC by released drug; format: cell-based; conditions: released drug samples diluted 1:1 in culture medium; fresh bevacizumab 1, 10, 100 µg/mL
Method: The long-term efficacy and biological stability of drugs released were evaluated through culture of human umbilical vein endothelial cells (HUVECs), which are cells that are involved in angiogenesis. After culturing HUVECs, they were prepared in 2×10^4 cells/well in a 48-well plate and treated with the long-term released bevacizumab drug samples diluted in 1:1 ratio in a cell culture medium (EBM media containing EGM supplements and 1% P/S) and fresh bevacizumab drug samples by concentration so as to observe cell growth inhibition and safety. For the control of fresh bevacizumab drug samples by concentration, preparation was performed at final concentrations of 1, 10, and 100 µg/mL, diluted in cell culture media.

Substance: bevacizumab
- initial excess elimination maintained until ([1]; aqueous humor (drainway)): 30 days
- elimination curve ([1]; retina): fastest elimination curve
- elimination curve ([1]; vitreous): fastest elimination curve
- inhibition of HUVEC cell growth (WST-1) [2]: inhibition of cell growth in proportion to the concentration of the drug
